US7176283B1, “Protease-activated receptor 3 and uses thereof” (The Regents of the University of California, priority 1996, dated 2007)
Blank lines part the entries; values can stand above or below the substance they belong to.

Assays:
[1] = target: epitope-tagged human PAR3 (FLAG epitope fused to amino acid 17 of PAR3) (human) (UniProt O00254); assay: cell-based or functional assay
[2] = target: human protease-activated receptor 3 (human) (UniProt O00254); assay: cell-based or functional assay
human PAR3 = target: T1, human PAR3 (Homo sapiens, UniProt O00254); assay: Phosphoinositide hydrolysis in Cos 7 cells transfected with human PAR3; format: cell-based; details: Cos 7 cells expressing human PAR3; peptide concentrations up to 100 μM
T1 construct: The human PAR3 cDNA used for the functional studies presented below was cloned from a Lamda gt 10 intestinal cDNA library; expressed in transfected cells; host or cells: Cos 7 cells
T1 sequence (O00254 22-374): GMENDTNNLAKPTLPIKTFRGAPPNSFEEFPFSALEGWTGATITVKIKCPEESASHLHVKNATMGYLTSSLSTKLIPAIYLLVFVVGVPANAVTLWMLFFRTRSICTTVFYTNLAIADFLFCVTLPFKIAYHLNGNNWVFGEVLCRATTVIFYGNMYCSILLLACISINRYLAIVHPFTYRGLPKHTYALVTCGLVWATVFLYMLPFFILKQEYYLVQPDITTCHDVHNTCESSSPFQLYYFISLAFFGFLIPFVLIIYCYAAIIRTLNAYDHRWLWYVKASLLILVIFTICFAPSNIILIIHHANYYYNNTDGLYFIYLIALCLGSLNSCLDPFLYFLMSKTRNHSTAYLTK
Experimental: PAR3 signaling in Cos 7 cells was also examined. Cos 7 cells were transfected with human PAR1 or PAR3. Cells were then metabolically labelled with ^3H-inositol and phosphoinositide hydrolysis was measured in response to the indicated concentrations of a-thrombin (FIG. 8) or γ-thrombin (FIG. 9) as described by Ishii, et al. and Nanevicz et al. (Ishii, K. et al. (1993) supra; and Nanevicz, T. et al. (1996) J. Biol. Chem. 271:702–706).
Peptides homologous to the tethered domain of PAR3 may be tested as potential agonists of PAR3 activity. Two peptides TFRGAP (SEQ NO:27) and […] (SEQ ID NO:17) were synthesized and tested for their ability to mimic the action of thrombin by causing PAR3 signaling as measured by phosphoinositide hydrolysis. Cos 7 cells expressing human PAR3 were incubated with the peptides at concentrations up to 100 μM.

[3] = target: epitope-tagged human PAR3 (FLAG epitope fused to amino acid 17 of PAR3) (human) (UniProt O00254); assay: antibody binding to the FLAG epitope on the surface of transfected Cos 7 cells
[4] = target: α-thrombin (Homo sapiens (Human)) (UniProt P00734); assay: cell-based or functional assay
[5] = tested on: epitope-tagged human PAR3 bearing the F40A tethered ligand domain mutation

Substance: thrombin rendered proteolytically inactive by the active site inhibitor PPACK (enzyme)
45Ca release in Xenopus oocytes [1]: 1 µM

Substance: M1 monoclonal antibody (Kodak)
share of M1 antibody binding that was transfection-dependent [3]: > 95%

Substance: α-thrombin
PAR3 signaling and PAR3 cleavage by thrombin [5]: ablated PAR3 signaling but not PAR3 cleavage by thrombin

Other lines, results leading:

EC50, phosphoinositide hydrolysis in Cos 7 cells [2]: 20 nM
Substance: γ-thrombin (enzyme)

PAR3 signaling as measured by phosphoinositide hydrolysis (agonist activity) (human PAR3): no detectable signaling
Substance: TFRGAP [synthetic peptide homologous to the tethered ligand domain of PAR3]

shift of the α-thrombin dose response curve for PAR3 signaling (data not shown) [4]: 2 logs
Substance: hirugen (peptide)

PAR3 signaling as measured by phosphoinositide hydrolysis (agonist activity) (human PAR3): no detectable signaling
Substance: TFRGAPPNS [synthetic peptide homologous to the tethered ligand domain of PAR3]
